Patent US10597674B2, “HPPD variants and methods of use” (BASF Agricultural Solutions Seed, US LLC, priority 2015, dated 2020)
Numbering of substitutions follows the chain as printed. Numbers in names are those of the source. Read-outs that look alike come from different tables or passages of the source.

B1: 97 (protein)
chain: MADLYENPMGLMGFEFIEFASPTPGTLEPIFEIMGFTKVATHRSKNVHLYRQGEINLILNNEPNSIASYFAAEHGPSVCGMAFRVKDSQKAYNRALELGAQPIHIDTGPMELNLPAIKGIGGAPLYLIDRFGEGSSIYDIDFVYLEGVERNPVGAGLKVIDHLTHNVYRGRMVYWANFYEKLFNFREARYFDIKGEYTGLTSKAMSAPDGMIRIPLNEESSKGAGQIEEFLMQFNGEGIQHVAFLTDDLVKTWDALKKIGMRFMTAPGDRYYEMLEGRLPDHGEPVDQLQARGILLDGSSVEGDKRLLLQIFSETLMGPVFFEFIQRKGHSGFGPDSFKVLFESKERDQVRRGVLTAD
modifications: mutant HPPD polypeptide
B2: 100 (protein)
chain: B1 chain with M264L, R270E, S331D, S344Q, K345M
modifications: mutant HPPD polypeptide
B3: 102 (protein)
chain: B1 chain with M264L, G268R, R270E, T315R, H330D, S331D, D336H, S344Q, K345M
modifications: mutant HPPD polypeptide
B4: SEQ ID NO: 30: mutant HPPD polypeptide: P268S T270S E335P G336H N337S A340V I345K (protein)
chain: B1 chain with G268S, R270S, H330D, S331D, D336H
modifications: mutant HPPD polypeptide
notes: mutant HPPD polypeptide: P268S T270S E335P G336H N337S A340V I345K
B5: SEQ ID NO: 44: mutant HPPD polypeptide: R213L P268G T270E E335P G336D N337S A340V I345V (protein)
chain: B1 chain with R213L, R270E, H330D, S331D, K345V
modifications: mutant HPPD polypeptide
notes: mutant HPPD polypeptide: R213L P268G T270E E335P G336D N337S A340V I345V
B6: SEQ ID NO: 42: mutant HPPD polypeptide: A204T P268G T270E E335P G336D N337S A340V I345V (protein)
chain: B1 chain with A204T, R270E, H330D, S331D, K345V
modifications: mutant HPPD polypeptide
notes: mutant HPPD polypeptide: A204T P268G T270E E335P G336D N337S A340V I345V
B7: 99 (protein)
chain: B1 chain with R270E, H330D, S331D, F338V, V340R, K345V
modifications: mutant HPPD polypeptide
B8: SEQ ID NO: 9: mutant HPPD polypeptide: E335P G336D N337S I345V (protein)
chain: B1 chain with G268P, R270T, H330D, S331D, V340A, K345V
modifications: mutant HPPD polypeptide
notes: mutant HPPD polypeptide: E335P G336D N337S I345V
B9: 107 (protein)
chain: B1 chain with R213K, R270E, H330D, S331D, D336H, F338V, V340R, K345V
modifications: mutant HPPD polypeptide
B10: 106 (protein)
chain: B1 chain with M264L, R270E, S331P, S344Q, K345M
modifications: mutant HPPD polypeptide
B11: SEQ ID NO: 21: mutant HPPD polypeptide: E335P G336H N337S (protein)
chain: B1 chain with G268P, R270T, H330D, S331D, D336H, V340A, K345I
modifications: mutant HPPD polypeptide
notes: mutant HPPD polypeptide: E335P G336H N337S
B12: SEQ ID NO: 45: mutant HPPD polypeptide: P268G T270E T315R E335P G336D N337S A340V I345V (protein)
chain: B1 chain with R270E, T315R, H330D, S331D, K345V
modifications: mutant HPPD polypeptide
notes: mutant HPPD polypeptide: P268G T270E T315R E335P G336D N337S A340V I345V

Assays:
[1] = test system: HPPD polypeptides (wild-type SEQ ID NO:1 and mutants); details: high substrate concentration; for Residual activity: kapp normalized to kapp without inhibitor; for Residual turnover: total change in signal normalized to no inhibitor
Method: For the generation of crude HPPD polypeptide extract in micro titer plates (MTP) for the determination of residual activity in inhibition assays, cells were grown in 40 or 150 μl LB medium containing 1% Glucose (Merck, Darmstadt, Germany) and 100 μg/ml ampicillin in a standard 96 well plate (Thermo Fisher Scientific, Waltham, USA) incubated for about 18 h in a humidity incubator at 37° C.
30 μl of this starter culture were added to 600 μl LB medium containing 100 μg/ml ampicillin and 150 mM Hepes (Merck, Darmstadt, Germany) as inoculum for the expression culture in 96 well plates (2 ml deep wells; HJ Bioanalytik, Erkelenz, Germany) The plates were sealed by an aluminium foil, and cells were incubated for 5 h at 37° C. on a plate shaker at 750 rpm. The expression was induced by addition of IPTG in a final concentration of 1 mM followed by further sealed incubation for about 18 h at 30° C. on a plate shaker at 750 rpm.
Cells were harvested by centrifugation at 4° C., 2500 g for 15 min discarding the supernatant. Cell pellets were stored at −80° C. and lysed in 250 μl 1× BugBuster® (Merck, Darmstadt, Germany) in 140 mM Tris (pH 7.8), with 1:25000 diluted BNase® (Qiagen, Hilden, Germany) by incubation of the resuspended cells for 30 min at 4° C. and 1000 rpm. Lysates were clarified by centrifugation for 15 min at 4° C., 2500 g, and 150 μl supernatant were transferred in standard 96 well plate (Thermo Fisher Scientific, Waltham, USA) for subsequent testing in quadruplets.
The activity of HPPD polypeptides was determined in absence or presence of HPPD inhibitors using the coupled HPPD activity assay (FIG. 1).
For the determination of the residual activity, the apparent kinetic constant (kapp) of the determined substrate conversion was measured as kinetic changes in absorbance at 320 nm in a coupled assay, in that homogentisate (HGA) formed by HPPD from HPP is directly converted into the well absorbing molecule maleylacetoacetate (MAA) by a second enzyme homogentisate dioxygenase (HGD), applied in excess uniformly in all assays (see FIG. 1). The measurements were performed in 384 micro titer plates (Greiner Bio-One GmbH, Frickenhausen, Germany) by plate readers (Tecan infinite M1000 or M1000PRO, Tecan, Männedorf, Switzerland). The kcat/kM ratio of an enzymatic activity is proportional to the apparent kinetic constant kapp and is proportional to kcat/kM*[E] ([E]=enzyme concentration). […] As both kapp measurements in the presence and absence of inhibitor were performed by use of the identical enzyme sample, crude or purified, and thereby at the same enzyme concentration, the enzyme concentration eliminates from the calculation of residual activity and the ratio of both kapp directly indicates the change of kM due to the inhibition.

[2] = test system: E. coli cells expressing an HPPD polypeptide; experiment: Brown color bioassay in liquid culture, residual brown color formation (BCF), OD440 after 96 hours; type: cell-based; details: for Control BCF OD440nm: brown color formation in absence of Cmpd. 1, culture supernatant after 96 hours, 5 mM HPP; for Residual BCF OD440nm [%]: brown color formation with Cmpd. 1 (1000 μM) relative to without, after 96 hours
Method: In an additional experiment, mutant HPPD polypeptides were analyzed using the principle of a colorimetric brown color assay (as, for example, described in U.S. Pat. No. 6,768,044). Bacterial cells expressing the HPPD polypeptides according to this invention were assayed in 96 well plate format (Nunc® 96 DeepWell™ plate, Sigma-Aldrich, St. Louis, USA) for HPPD polypeptides with improved HPPD inhibitor herbicide tolerance.
E. coli cells were grown in liquid LB medium (Carl Roth GmbH+Co. KG, Karlsruhe, Germany) containing the selection agent for the expression vector pSE420(RI)NX (WO2014/043435) and 5 mM para-hydroxyphenylpyruvate (HPP; Sigma-Aldrich, St. Louis, USA), in the presence of absence of the HPPD inhibitor herbicide e.g. Cmpd. 1 (1000 μM). An overnight culture of E. coli culture expressing one of the respective HPPD polypeptides according to this invention were adjusted to an OD600 of 0.3-0.5 in a final volume of 500 μL and incubated at 30 degree Celsius. Residual brown color formation was determined by measuring the brown color formation (BCF) in the presence and absence of Cmpd. […] Therefore, after 96 hours the culture was centrifuged and the supernatant of the culture was used to measure the optical density of the soluble brown pigment formation at 440 nm (OD440 nm).

[3] = test system: transgenic soybean T0 events; experiment: Additional greenhouse trials of T0 soybean events, leaf damage score 0-100 as percentiles; type: in vivo; details: Cmpd. 1 300 g AI/ha, five days; for leaf damage score, Interquartile range: 75th minus 25th percentile; for leaf damage score, 25th percentile: scale 0 (no damage) to 100 (complete bleaching); for leaf damage score, 75th percentile / leaf damage score, 90th percentile / leaf damage score, Median: scale 0-100
From the text: In additional greenhouse trials, 21 to 94 independent T0 soybean events per construct containing an exemplary mutant HPPD polypeptide were sprayed with the HPPD inhibitor herbicide Cmpd. […] Five days after the application, the leaf damaged area due to the HPPD inhibitor herbicide is scored in a scale from 0 (no damage) to 100 (complete bleaching). Under those conditions, the wild-type plants were completely bleached and their damage scores were in the 95-100 range.
Table 9 presents the distribution of the HPPD inhibitor herbicide damage score data as percentile for exemplary mutant HPPD inhibitor herbicide tolerant polypeptides (SEQ ID NOs). The percentiles normalize ranks of the damage score from an individual plant in a population. […] The median is the 50th percentile. Half the values had higher damage scores; half had lower damage scores. […] The difference between the 75th and 25th percentile is called the interquartile range and a marker to quantify scattering in the population. All constructs had only one single cassette insertion in the soybean genome.
In Table 9, the constructs were ranked based on injury scores according to the 75th percentile, from smallest to highest score. All exemplary HPPD polypeptide variants are better in all percentile analyses than the prior art mutant HPPD polypeptide (WO2014/043435) corresponding to SEQ ID NO:2 in this invention. The scoring of the prior art mutant HPPD polypeptide (WO2014/043435) corresponding to SEQ ID NO:2 in this invention is listed in the bottom row of Table 9.

[4] = in the presence of Cmpd. 1, 15 μM inhibitor
[5] = in the presence of Cmpd. 2, 15 μM inhibitor
[6] = in the presence of diketonitrile (DKN), 60 μM inhibitor
[7] = in the presence of mesotrione (MST), 60 μM inhibitor

| Molecule | Control BCF OD440nm [2] | Residual BCF OD440nm [%] [2] | leaf damage score, Interquartile range [3] | leaf damage score, 25th percentile [3] | leaf damage score, 75th percentile [3] | leaf damage score, 90th percentile [3] | leaf damage score, Median [3] | further results |
| --- | --- | --- | --- | --- | --- | --- | --- | --- |
| Cc1nnc(NC(=O)c2ccc(C(F)(F)F)c(S(C)(=O)=O)c2C)o1 [Cmpd. 2, 2-methyl-N-(5-methyl-1,3,4-oxadiazol-2-yl)-3-(methylsulfonyl)-4-(trifluoromethyl)benzamide, reference compound] | 2.68 | 18% | – | – | – | – | – | Residual activity [1, 4]: 39%; Residual turnover [1, 4]: 50%; Residual activity [1, 5]: 51%; Residual turnover [1, 5]: 72%; Residual activity [1, 6]: 86%; Residual turnover [1, 6]: 93%; Residual activity [1, 7]: 71%; Residual turnover [1, 7]: 85% |
| B1 | 1.54 | 49% | – | – | – | – | – | – |
| B2 | 2.48 | 33% | – | – | – | – | – | – |
| B3 | 2.47 | 26% | – | – | – | – | – | – |
| B4 | – | – | 5.0 | 10.0 | 15.0 | 25.0 | 15.0 | – |
| B5 | – | – | 11.3 | 10.0 | 21.3 | 70.0 | 15.0 | – |
| B6 | – | – | 10.0 | 10.0 | 20.0 | 75.0 | 15.0 | – |
| B7 | 1.52 | 87% | – | – | – | – | – | – |
| B8 | – | – | 5.0 | 10.0 | 15.0 | 19.0 | 10.0 | – |
| B9 | 1.38 | 84% | – | – | – | – | – | – |
| B10 | 1.50 | 73% | – | – | – | – | – | – |
| B11 | – | – | 15.0 | 10.0 | 25.0 | 35.0 | 15.0 | – |
| B12 | – | – | 21.3 | 5.0 | 26.3 | 67.5 | 15.0 | – |
